Measurements taken from paper PMC3796514.

How the values were obtained:
[1] = molecular target: HapRV2G (wild type functional HapR, glycine at position 39), N-terminal 6X His fusion (Vibrio cholerae); experiment: SEC
[2] = molecular target: HapRV2G-E117K (HapR natural variant with lysine at position 117 in the dimerization domain), N-terminal 6X His fusion (Vibrio cholerae); experiment: SEC

Substance	stoichiometry N [1]	stoichiometry N [2]
HapRV2G (wild type functional HapR, glycine at position 39), N-terminal 6X His fusion (natural protein)	2	
HapRV2G-E117K (HapR natural variant with lysine at position 117 in the dimerization domain), N-terminal 6X His fusion (natural protein)		2
